Measurements published in patent US20030023034A1 (published 2003).

Molecular target: T1, cyclophilin B (GenBank Accession No. M60857) (UniProt P23284 34-216, limits assumed)
T1 construct: Yeast two-hybrid fusion; also called CYC-B
Assay: yeast matrix mating test (two-hybrid), growth on selective medium
Procedure: Briefly, cells were grown until mid-to-late log phase on media that selected for the presence of the appropriate plasmids. The two mating strains, alpha and a, were then, diluted in YAPD media, filtered onto nitrocellulose membranes, and incubated at 30 degrees Celsius for 6-8 hours. The cells were then transferred to media selective for the desired diploids, i.e., yeast harboring reporter genes for beta-galactosidase, uracil auxotrophy, and histidine auxotrophy, and expression of the vectors encoding the bait and prey. The mating products were plated on SC (synthetic complete) (Sambrook et al., 1989, A Laboratory Manual, 2nd Ed., Cold Spring Harbor Press, New York) media lacking adenine and lysine (to select for successful mating), leucine and tryptophan (to select for expression of genes encoded by both plasmids), and uracil and histidine (to select for protein interactions). This medium is herein referred to as SCS medium, for SC Selective medium.
To test for the specificity of p27(Kip1):FKBP-12 interaction, two general tests were first performed. In the first instance, YULH cells expressing FKBP-12 were created and plated on SC (synthetic complete) −Ura plates, grown for 1-2 days, and examined for growth. […]

T1 sequence (P23284 34-216 limits assumed, one chain of several): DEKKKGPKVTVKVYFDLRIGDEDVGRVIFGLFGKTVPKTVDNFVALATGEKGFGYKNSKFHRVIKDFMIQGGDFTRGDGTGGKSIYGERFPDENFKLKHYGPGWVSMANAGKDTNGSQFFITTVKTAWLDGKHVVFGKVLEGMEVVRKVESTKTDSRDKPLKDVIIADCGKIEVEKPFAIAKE

B1: p27(Kip1) (other)
chain: RDLEKHCRDMEEASQRKWNFDFQNHKPLEGKYEWQEVEKGSLPEFYYRPPRPPKGACKVPAQESQDVSGSRPAAPLIGAPANSEDTHLVDPKTDPSDSQTGLAEQCAGIRKRPATDDSSTQNKRANRTEENVSDGSPNAGSVEQTPKKPGLRRRQT
notes: Yeast two-hybrid fusion expressed in yeast; also called p27(Kip1) bait
B1: no binding.
